# Reference: US20240287189A1 (SPARX BIOSCIENCE, published 2024)
# Legend:
# [1] = biological target: T1, PDL1 expressed on MDA MB-231 human breast cancer cells (human, UniProt Q9NZQ7 19-290); experiment: flow cytometry on MDA MB-231 cells, anti-human IgG Fc secondary antibody
# T1 construct: whole, on cells; also called MDA MB-231 cells
# [2] = biological target: PDL1 on PDL1 aAPC/CHOK1 cells (UniProt Q9NZQ7 19-290, limits assumed); experiment: cell-based or functional assay
# [3] = biological target: T2, human PD-L1 (recombinant protein, coated and in solution in the phage ELISA) (human, UniProt Q9NZQ7 19-239); experiment: competitive phage ELISA, Fab on phage, soluble PD-L1 against coated PD-L1
# T2 construct: It is probably the same Met1-Thr239 extracellular segment that was used for selection; also called CD274; B7 homolog 1
# [4] = biological target: T2, human PD-L1 (recombinant protein, …); experiment: competitive phage ELISA, ratio to 12A4 parent clone
Binder,Kd [1] [nM],"EC50, luminescent signal in PDL1/PD1 blockage bioassay [2] [nM]",Kd [3] [nM],Improvement from 12A4 Parent Clone [4] [fold]
"anti-PDL1 monoclonal antibody 12A4bad (antibody, V domains shown, also called PDL1 antibody 12A4bad) VH: QVQLVQSGAEVKKPGSSVKVSCKTSGDTFSTYAISWVRQAPGQGLEWMGGIIPLFGKAHYAQKFQGRVTITADESTSTAYMELSSLRSEDTAVYFCARKFHFVRGSPFGMDVWGQGTTVTVSS VL: EIVLTQSPATLSLSPGERATLSCRASQSVSSYLAWYQQKPGQAPRLLIYDASNRAPGIPARFSGSGSGTDFTLTISSLEPEDFAVYYCQQRSNWPTFGQGTKVEIK",0.0778,0.344,–,–
"12A4ad Fab displayed on phage (Fab, V domains shown) VH: QVQLVQSGAEVKKPGSSVKVSCKTSGDTFSTYAISWVRQAPGQGLEWMGGIIPLFGKAHYAQKFQGRVTITADESTSTAYMELSSLRSEDTAVYFCARKFHFVSGSPFGMDVWGQGTTVTVSS VL: EIVLTQSPATLSLSPGERATLSCRASQSVSSYLAWYQQKPGQAPRLLIYDASNRAPGIPARFSGSGSGTDFTLTISSLEPEDFAVYYCQQRSNWPTFGQGTKVEIK",–,–,5,–
"12A4bd Fab displayed on phage (Fab, V domains shown) VH: QVQLVQSGAEVKKPGSSVKVSCKTSGDTFSTYAISWVRQAPGQGLEWMGGIIPLFGKAHYAQKFQGRVTITADESTSTAYMELSSLRSEDTAVYFCARKFHFVRGSPFGMDVWGQGTTVTVSS VL: not shown",–,–,1.8,6.3
"12A4a Fab displayed on phage (Fab, V domains shown) VH: QVQLVQSGAEVKKPGSSVKVSCKTSGDTFSTYAISWVRQAPGQGLEWMGGIIPIFGKAHYAQKFQGRVTITADESTSTAYMELSSLRSEDTAVYFCARKFHFVSGSPFGMDVWGQGTTVTVSS VL: EIVLTQSPATLSLSPGERATLSCRASQSVSSYLAWYQQKPGQAPRLLIYDASNRAPGIPARFSGSGSGTDFTLTISSLEPEDFAVYYCQQRSNWPTFGQGTKVEIK",–,–,8.3,1.3
"12A4bad Fab displayed on phage (Fab, V domains shown) VH: QVQLVQSGAEVKKPGSSVKVSCKTSGDTFSTYAISWVRQAPGQGLEWMGGIIPLFGKAHYAQKFQGRVTITADESTSTAYMELSSLRSEDTAVYFCARKFHFVRGSPFGMDVWGQGTTVTVSS VL: EIVLTQSPATLSLSPGERATLSCRASQSVSSYLAWYQQKPGQAPRLLIYDASNRAPGIPARFSGSGSGTDFTLTISSLEPEDFAVYYCQQRSNWPTFGQGTKVEIK",–,–,1.5,7.5
"12A4b Fab displayed on phage (Fab, V domains shown) VH: QVQLVQSGAEVKKPGSSVKVSCKTSGDTFSTYAISWVRQAPGQGLEWMGGIIPIFGKAHYAQKFQGRVTITADESTSTAYMELSSLRSEDTAVYFCARKFHFVRGSPFGMDVWGQGTTVTVSS VL: not shown",–,–,–,3.3
